Experimental data taken from the supplement of paper PMC6755084.

These sequences were tested on F1*sub RNA substrate (template-directed ligation) (assay: fraction ligated after 30 min (ligated reads / total reads); higher = more ligase activity; sequences stand for … in GAGACCGCAACTGAAAAGTTGT…AGTTCTGCACGTAGAAGCAAAAGGC). Conditions: 42 °C.
Method in brief: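 The ligase ribozyme variants were produced by PCR amplification of oligo-pool templates, T7 transcription and purification on gel. Their ligated and unligated forms were gel-separated, then reverse transcribed with barcoded primers before MiSeq sequencing. Core bases were filtered at a quality of ≥20, and fraction ligated per variant was ligated reads over total reads.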

Sequence | fraction ligated
TTCACTTGTCGTAAGAACTTTGGATGGTTGA [3d467] | 0.279
TATCTTGTCGTAAGCACTTTGGATGGGTTGA [3d747] | 0.743
TATACTTGTCGTAAGACCTTTGATGGGTTGA [3d912] | 0.706
TATCACTTTCGTAAGACACTTTGGATGGTTG [3d1582] | 0.0551
TACACTTGTCGTAAGACACTTTGTGGGTTGA [3d722] | 0.115
TATCACTTGCGTAAGCACTTTGATGGGTTGA [3d1653] | 0.802
TTCACTTGCGAAGACACTTTGGATGGGTTGA [3d373] | 0.702
TATACTTGTCGAAGAACTTTGGATGGGTTGA [3d860] | 0.748
ATCACTTGCGTAAGCACTTTGGATGGGTTGA [3d145] | 0.804
TATCCTTGTCGTAAGCACTTTGGAGGGTTGA [3d1071] | 0.0111
TATCACTTGTCTAAACACTTGGATGGGTTGA [3d1839] | 0.776
TATACTTGTCGTAAACACTTTGGTGGGTTGA [3d888] | 0.019
TATACTTGTCGTAAGACACTTTGATGGGTTA [3d936] | 0.0174
ATCACTGTCGTAAGACATTTGGATGGGTTGA [3d116] | 0.719
TATCACTTTCGTAGACATTTGGATGGGTTGA [3d1511] | 0.77
TATCACTTGTCGTAAGACACTTGGTGGTTGA [3d2245] | 0.012
ATCACTTGTGTAGACACTTTGGATGGGTTGA [3d158] | 0.864
TATCACTTTCGTAGACACTTGGATGGGTTGA [3d1512] | 0.752
TATCCTGTCGTAAACACTTTGGATGGGTTGA [3d956] | 0.796
TATCATTGTCGTAAGACACTTGGAGGGTTGA [3d1272] | 0.183
TATCATGTCGTAAGCACTTTGGATGGGTTGA [3d1129] | 0.761
TACACTTGTCGAAGACCTTTGGATGGGTTGA [3d650] | 0.1
TATCACTTGTCGTAGACACTTTGGAGGTTGA [3d2052] | 0.072

Sequence | fraction ligated
ATCACTTTCGTAAGACACTTTGGATGGGTTA [3d138] | 0.137
ACACTTGCGTAAGACACTTTGGATGGGTTGA [3d29] | 0.197
TATCACTTGTCGTAGACCTTTGGATGGTTGA [3d2025] | 0.344
TATCACTTGTCGTAAGCACTTTGGAGGTTGA [3d2145] | 0.143
TATCACTTGTGTAAACACTTTGATGGGTTGA [3d1748] | 0.831
TCACTTGTCGTAAGACACTTTGATGGGTTGA [3d18] | 0.183
TACACTTGTCGTAAGACATTTGGATGGGTTG [3d713] | 0.324
TATCATTGTCGTAAGACTTTGGATGGGTTGA [3d1237] | 0.802
TATACTTGCGAAGACACTTTGGATGGGTTGA [3d814] | 0.649
ATCATTGTGTAAGACACTTTGGATGGGTTGA [3d89] | 0.79
ATCACTTTCGTAAGACATTTGGATGGGTTGA [3d132] | 0.781
TATCACTTTCGTAAGACCTTTGGATGGGTTA [3d1552] | 0.623
TATACTTGTCGTAAGACTTTGGATGGGTTGA [3d893] | 0.758
TATCACTTGTCGAAGAACTTTGGTGGGTTGA [3d1938] | 0.173
ATCATTGTCGTAAACACTTTGGATGGGTTGA [3d93] | 0.77
TATCACTTGTCGTAAGACACTTTAGGGTTGA [3d2256] | 0.0176
TATCACTTGTCTAGACACTTTGGATGGTTGA [3d1833] | 0.361
ATCCTTGTCTAAGACACTTTGGATGGGTTGA [3d71] | 0.716
TTCACTTGTCGTAAACACTTTGGATGGGTTA [3d450] | 0.0146
TTCACTTTCGTAAGACATTTGGATGGGTTGA [3d363] | 0.775
ATCACTTGTCTAAGACACTTTGGAGGGTTGA [3d181] | 0.155
TATCCTGTCGTAAGACACTTTGGATGGGTTG [3d967] | 0.76
TATCACTTGTCGTAAGACACTTTATGGGTTG [3d2259] | 0.0149

Sequence | fraction ligated
TATCACTTGTCGTAAGACCTTTGGATGGTTA [3d2203] | 0.127
TATCACTTGTGTAAGACACTTGGATGGGTTA [3d1791] | 0.349
TATCCTTGTGAAGACACTTTGGATGGGTTGA [3d1001] | 0.792
TATCACGTCGTAAGCACTTTGGATGGGTTGA [3d1300] | 0.768
TATCACTGTCGTAGCACTTTGGATGGGTTGA [3d1387] | 0.881
TATCATTGTCGAGACACTTTGGATGGGTTGA [3d1201] | 0.783
TATCACTTGTCGTAAGACCTTTGGATGGGTTG [2d268] | 0.828
TATCACTTGTCGTAAGCACTGGATGGGTTGA [3d2128] | 0.771
TATCATTGTCGTAGACACTTTGATGGGTTGA [3d1221] | 0.774
ACACTTGTCGTAAGAACTTTGGATGGGTTGA [3d36] | 0.218
TATCATTGCGTAAGAACTTTGGATGGGTTGA [3d1162] | 0.837
TCACTTGTCGTAAGACCTTTGGATGGGTTGA [3d15] | 0.769
TATCACTTGTGTAAACATTTGGATGGGTTGA [3d1746] | 0.833
TTCACTTGTCGTAAGACTTTGGATGGGTTGA [3d452] | 0.752
TATCACTTGTCGTAAGACACTTTGGTGGTTG [3d2274] | 0.0129
TATCACTTGTCAAGACCTTTGGATGGGTTGA [3d1814] | 0.762
ATCACTTGTCGTAAGACACTTGATGGGTTGA [3d254] | 0.164
TATACTTGCGTAAGACACTTTGGATGGTTGA [3d825] | 0.0234
TATCACTTGTCGTAGACCTTTGGATGGGTTA [3d2026] | 0.798
TATACTTGTCTAAGACACTTTGGATGGGTTA [3d855] | 0.0424
TATCCGTCGTAAGACACTTTGGATGGGTTGA [3d949] | 0.798
TATACTTGTGTAGACACTTTGGATGGGTTGA [3d830] | 0.776
ACACTTGTCGTAAACACTTTGGATGGGTTGA [3d34] | 0.201

Sequence | fraction ligated
TATCACTTTCGTAAGAACTTTGGTGGGTTGA [3d1542] | 0.342
TACATTGTCTAAGACACTTTGGATGGGTTGA [3d551] | 0.0666
TATCACTGTCTAAGCACTTTGGATGGGTTGA [3d1361] | 0.771
TATCCTTTCGTAAGAACTTTGGATGGGTTGA [3d974] | 0.797
TATACTTTCGTAAGACACTTTGGATGGTTGA [3d809] | 0.0312
TATCATGTCGTAAGACACTTTGGATGGGTTGA [2d109] | 0.792
TATCCTGCGTAAGACACTTTGGATGGGTTGA [3d951] | 0.786
TATCACTTGTCGTAGACACTTGGTGGGTTGA [3d2037] | 0.105
TATCACTTGTCGTAAGCCTTTGGATGGGTTG [3d2120] | 0.782
TATCACTTGTCTAAGACATTTGATGGGTTGA [3d1872] | 0.345
TATCACTTCGTAAGACACTTTGGATGGTTGA [3d1324] | 0.122
ATCACTTGTCGTAAGAACTTTGGAGGGTTGA [3d235] | 0.0738
ATCACTTGTCGTAGAACTTTGGATGGGTTGA [3d201] | 0.867
TATCACTTGCGTAAGACACTTTGGTGGGTTG [3d1697] | 0.038
ATCATTGTCGTAAGACACTTTGGATGGGTTA [3d103] | 0.093
TTCACTTGTCGTAAGAACTTTGGATGGGTTG [3d469] | 0.533
TATCACTTGTCGTAAGCACTTTGTGGGTTGA [3d2136] | 0.0369
TATCACTTGTCTAAGAACTTGGATGGGTTGA [3d1857] | 0.771
TATCACTTGTCTAAGAACTTTGGATGGGTTA [3d1862] | 0.735
TCACTTGTCTAAGACACTTTGGATGGGTTGA [3d9] | 0.768
TATCACTTGTGTAAGCACTTTGGATGGTTGA [3d1761] | 0.256
TATCACTTGCGAAGACATTTGGATGGGTTGA [3d1618] | 0.814
TATCACTGTCGTAAGACACTTTGGAGGGTTA [3d1458] | 0.0132

Sequence | fraction ligated
TATCACGTCGTAAGACACTTTGGATGGTTGA [3d1308] | 0.361
TATCACTGTCGTAAGACACTTTGGTGGGTTA [3d1455] | 0.0411
TATCACTGTCTAGACACTTTGGATGGGTTGA [3d1359] | 0.822
ATCACTTGTCTAAGACATTTGGATGGGTTGA [3d177] | 0.756
TATCTTGTCGTAAGACACTTTGGATGGGTTG [3d757] | 0.779
TATCACTGTCGTAAGACCTTTGATGGGTTGA [3d1427] | 0.773
ATCACTTGTCGTAAGACACTTTGATGGGTTGA [2d19] | 0.702
TATCACTTGTCGTAAGACATTTGATGGTTGA [3d2217] | 0.00686
TACACTTGTCGTAAGACACTTTGGATGGTTA [3d734] | 0.405
TATCACTTGTGAGACACTTTGGATGGGTTGA [3d1718] | 0.841
TATCACTTGTCGTAAGACCTTGGATGGGTTG [3d2189] | 0.79
TACACTTGTCGTAAGCACTTGGATGGGTTGA [3d685] | 0.0451
TATCACTTGTCGAAGACACTTTGGATGGGTT [3d1979] | 0.763
TATCACTTGTCGTAAACACTTTGGAGGGTTA [3d2099] | 0.101
TATCATTGTGTAAGACACTTTGGTGGGTTGA [3d1182] | 0.0386
ATCACTTGTCGTAAGACATTTGGATGGGTTA [3d251] | 0.66
TACACTTGTCGTAGACACTTTGGATGGGTTG [3d671] | 0.514
TATCATTGTCGTAAGAACTTTGGAGGGTTGA [3d1251] | 0.0299
TATCACTTCGTAAGACACTTTGGATGGGTTGA [2d129] | 0.825
TATCACTTGTCGTAAACACTTTGGATGGGTTA [2d242] | 0.77
